Substitutions are numbered along the chain they refer to.

The chains are these.
B1: hTRAILR2-hPSMA bispecific antibody fragment E11-CH1-PN7VH Fab (bispecific antibody)
heavy: QLQLQESGPGLVKPSETLSLTCTVSGGSIISKSSYWGWIRQPPGKGLEWIGSIYYSGSTFYNPSLKSRVTISVDTSKNQFSLKLSSVTAADTAVYYCARLTVAEFDYWGQGTLVTVSSASTKGPSVFPLAPCSRSTSESTAALGCLVKDYFPEPVTVSWNSGALTSGVHTFPAVLQSSGLYSLSSVVTVPSSSLGTKTYTCNVDHKPSNTKVDKRVEVQLVQSGAEVKKPGASVKVSCKASGYTFTTYDINWVRQATGQGLEWMGWMNPNSGYTGYAQKFQGRVTMTRDTSISTAYMELSSLRSEDTAVYYCARTNWESWYFDLWGRGTLVTVSSASTKGPSVFPLAPCSRSTSESTAALGCLVKDYFPEPVTVSWNSGALTSGVHTFPAVLQSSGLYSLSSVVTVPSSSLGTKTYTCNVDHKPSNTKVDKRVDYKDDDDKHHHHHH
VL: EIVLTQSPATLSLSPGERATLSCRASQSVSSFLAWYQQKPGQAPRLLIYDASNRATGIPARFSGSGSGTDFTLTISSLEPEDFAVYYCQQRSNWPLTFGPGTKVDIKR
notes: The hinge region is deleted from E11-CH1-PN7VH F(ab′)2; The light chains carry E11 VL, as in the F(ab′)2
B2: hTRAILR2-hPSMA bispecific antibody fragment E11-CH1-PN7VH F(ab′)2 (bispecific antibody)
heavy: QLQLQESGPGLVKPSETLSLTCTVSGGSIISKSSYWGWIRQPPGKGLEWIGSIYYSGSTFYNPSLKSRVTISVDTSKNQFSLKLSSVTAADTAVYYCARLTVAEFDYWGQGTLVTVSSASTKGPSVFPLAPCSRSTSESTAALGCLVKDYFPEPVTVSWNSGALTSGVHTFPAVLQSSGLYSLSSVVTVPSSSLGTKTYTCNVDHKPSNTKVDKRVEVQLVQSGAEVKKPGASVKVSCKASGYTFTTYDINWVRQATGQGLEWMGWMNPNSGYTGYAQKFQGRVTMTRDTSISTAYMELSSLRSEDTAVYYCARTNWESWYFDLWGRGTLVTVSSASTKGPSVFPLAPCSRSTSESTAALGCLVKDYFPEPVTVSWNSGALTSGVHTFPAVLQSSGLYSLSSVVTVPSSSLGTKTYTCNVDHKPSNTKVDKRVESKYGPPCPPCPDYKDDDDKHHHHHH
VL: B1 VL
notes: CH2 and CH3 are deleted; The heavy chain carries a C-terminal FLAG-tag and His-tag and dimerises through cysteine in the hinge region; All light chains carry E11 VL
B3: hTRAILR2-hPSMA heterobispecific antibody E11_PN7 Hetero antibody (bispecific antibody, human IgG1)
heavy 1: not shown
heavy 2: not shown
VL: B1 VL
notes: also called hE11_PN7 Hetero antibody
B4: hTRAILR2-hPSMA bispecific antibody E11-CH1-PI115VH antibody (bispecific antibody, IgG4)
heavy: not shown
VL: B1 VL
notes: domain: constant region; The heavy chain is E11 VH, an IgG4 CH1 linker and PI115 VH, followed by the constant region of the vector; All four light chains carry E11 VL
B5: hTRAILR2-hPSMA bispecific antibody E11-ML-PI101VH antibody (bispecific antibody, IgM)
heavy: not shown
VL: B1 VL
notes: domain: constant region; All four light chains carry E11 VL
B6: hTRAILR2-hPSMA bispecific antibody E11-CH1-PI127VH antibody (bispecific antibody, IgG4)
heavy: not shown
VL: B1 VL
notes: domain: constant region; The heavy chain is E11 VH, an IgG4 CH1 linker and PI127 VH, followed by the constant region of the vector; All four light chains carry E11 VL
B7: hTRAILR2-hPSMA bispecific antibody E11-CH1-PI143VH antibody (bispecific antibody, IgG4)
heavy: not shown
VL: B1 VL
notes: domain: constant region; The heavy chain is E11 VH, an IgG4 CH1 linker and PI143 VH, followed by the constant region of the vector; All four light chains carry E11 VL
B8: hTRAILR2-hPSMA bispecific antibody E11-CH1-PI118VH antibody (bispecific antibody, IgG4)
heavy: not shown
VL: B1 VL
notes: domain: constant region; The heavy chain is E11 VH, an IgG4 CH1 linker and PI118 VH, followed by the constant region of the vector; All four light chains carry E11 VL
B9: hTRAILR2-hPSMA bispecific antibody E11-CH1-PI108VH antibody (bispecific antibody, IgG4)
heavy: not shown
VL: B1 VL
notes: domain: constant region; The heavy chain is E11 VH, an IgG4 CH1 linker and PI108 VH, followed by the constant region of the vector; All four light chains carry E11 VL
B10: hTRAILR2-hPSMA bispecific antibody E11-CH1-PL223VH antibody (bispecific antibody, IgG4)
heavy: not shown
VL: B1 VL
notes: domain: constant region; The heavy chain is E11 VH, an IgG4 CH1 linker and PL223 VH, followed by the constant region of the vector; All four light chains carry E11 VL; also called E11-CHI-PL223VH
B11: PI134 phage clone (scFv displayed on M13 phage) (scFv, V domains shown)
VH: QVQLVQSGAEVKKPGASVKVSCKASGYTFTTYDINWVRQATGQGLEWMGWMNPNNGYTGYAQKFQGRVTMTRNTSISTAYMELSSLRSEDTAVYYCARTNWVYWYFDLWGRGTLVTVSS
VL: B1 VL
notes: Tested as an scFv on M13 phage (phagemid pCANTAB 5E)
B12: PI105 phage clone (scFv displayed on M13 phage) (scFv, V domains shown)
VH: B11 VH with Q1E, M48L, S77G, S84N
VL: EIVLTQSPATLSLSPGERATLSCRASQSVSSFLAWYQQKPGQAPRLLIYDASNRATGIPARFSGSGSGTDFTLTISSLEPEDFAVYYCQQRSNWPLTFGPGTKVDIK
notes: Tested as an scFv on M13 phage (phagemid pCANTAB 5E); not shown: scFv linker, domain order, tag and M13 coat-protein fusion of phagemid pCANTAB 5E; copies: 1 + 1
B13: PN170 phage clone (scFv displayed on M13 phage) (scFv, V domains shown)
VH: EVQLVQSGAEVKKPGASVKVSCKASGYTLTSYDINWVRQATGQGLEWMGWMNPNSGYTGYAQKFQDRVTMTRNTAINTAYMELSSLRSEDTAVYYCAREAGYDGIWYFDLWGRGTLVTVSS
VL: B1 VL
notes: as for B11
B14: PI127 phage clone (scFv displayed on M13 phage) (scFv, V domains shown)
VH: B11 VH with M48L, S77G, S84N
VL: B1 VL
notes: as for B11
B15: PL223 phage clone (scFv displayed on M13 phage) (scFv, V domains shown)
VH: B11 VH with Q1E, L114M
VL: B1 VL
notes: as for B11
B16: PI115 phage clone (scFv displayed on M13 phage) (scFv, V domains shown)
VH: B11 VH with Q1E
VL: B1 VL
notes: as for B11
B17: PI108 phage clone (scFv displayed on M13 phage) (scFv, V domains shown)
VH: B11 VH with S84T
VL: B1 VL
notes: as for B11
B18: PI118 phage clone (scFv displayed on M13 phage) (scFv, V domains shown)
VH: B11 VH with T28N, F29L, N55S, S77D, S85N
VL: B1 VL
notes: as for B11
B19: PN7 phage clone (scFv displayed on M13 phage) (scFv, V domains shown)
VH: B11 VH with Q1E, N55S, N73D, V102E, Y103S
VL: B1 VL
notes: as for B11
B20: PI143 phage clone (scFv displayed on M13 phage) (scFv, V domains shown)
VH: B11 VH with L114T
VL: B1 VL
notes: Tested as an scFv on M13 phage (phagemid pCANTAB 5E); also called P1143
B21: PI101 phage clone (scFv displayed on M13 phage) (scFv, V domains shown)
VH: B11 VH with Q1E, T28N, F29L, T30A, N55S, N73D, S77N
VL: B1 VL
notes: as for B11
B22: hTRAILR2-hPSMA bispecific antibody E11-CH1-PN170VH antibody (bispecific antibody, IgG4)
heavy: not shown
VL: B1 VL
notes: domain: constant region; The heavy chain is E11 VH, an IgG4 CH1 linker and PN170 VH, followed by the constant region of the vector; All four light chains carry E11 VL
B23: hTRAILR2-hPSMA bispecific antibody E11-GL-PI134VH antibody (bispecific antibody, IgG4)
heavy: not shown
VL: B1 VL
notes: domain: constant region; All four light chains carry E11 VL; also called E11-GL-PI1134VH
B24: hTRAILR2-hPSMA bispecific antibody E11-CH1-PI134VH antibody (bispecific antibody, IgG4)
heavy: not shown
VL: B1 VL
notes: domain: constant region; All four light chains carry E11 VL; also called E11-CH1-PI134 antibody
B25: hTRAILR2-hPSMA bispecific antibody E11-CH1-PI101VH antibody (bispecific antibody, IgG4)
heavy: not shown
VL: B1 VL
notes: domain: constant region; The heavy chain is E11 VH, an IgG4 CH1 linker and PI101 VH, followed by the constant region of the vector; All four light chains carry E11 VL
B26: anti-hPSMA monoclonal antibody 2A10 antibody (antibody, human IgG1, V domains shown)
VH: EVQLVQSGAEVKKPGESLKISCKGSGYSFTSNWIGWVRQMPGKGLEWMGIIYPGDSDTRYSPSFQGQVTISADKSISTAYLQWSSLKASDTAMYYCARQTGFLWSSDLWGRGTLVTVSS
VL: IQLTQSPSSLSASVGDRVTITCRASQDISSALAWYQQKPGKAPKLLIYDASSLESGVPSRFSGYGSGTDFTLTINSLQPEDFATYYCQQFNSYPLTFGGGTKVEIK
notes: Expressed from vector N5KG1 (N5KG1_2A10), the human IgG1 type vector

In one assay the target is T1, human prostate specific membrane antigen (hPSMA), membrane form on cells (human, UniProt Q04609 1-750).
T1 construct: endogenous on LNCaP clone FGC cells; also called membrane hPSMA
T1 sequence (Q04609 whole entry): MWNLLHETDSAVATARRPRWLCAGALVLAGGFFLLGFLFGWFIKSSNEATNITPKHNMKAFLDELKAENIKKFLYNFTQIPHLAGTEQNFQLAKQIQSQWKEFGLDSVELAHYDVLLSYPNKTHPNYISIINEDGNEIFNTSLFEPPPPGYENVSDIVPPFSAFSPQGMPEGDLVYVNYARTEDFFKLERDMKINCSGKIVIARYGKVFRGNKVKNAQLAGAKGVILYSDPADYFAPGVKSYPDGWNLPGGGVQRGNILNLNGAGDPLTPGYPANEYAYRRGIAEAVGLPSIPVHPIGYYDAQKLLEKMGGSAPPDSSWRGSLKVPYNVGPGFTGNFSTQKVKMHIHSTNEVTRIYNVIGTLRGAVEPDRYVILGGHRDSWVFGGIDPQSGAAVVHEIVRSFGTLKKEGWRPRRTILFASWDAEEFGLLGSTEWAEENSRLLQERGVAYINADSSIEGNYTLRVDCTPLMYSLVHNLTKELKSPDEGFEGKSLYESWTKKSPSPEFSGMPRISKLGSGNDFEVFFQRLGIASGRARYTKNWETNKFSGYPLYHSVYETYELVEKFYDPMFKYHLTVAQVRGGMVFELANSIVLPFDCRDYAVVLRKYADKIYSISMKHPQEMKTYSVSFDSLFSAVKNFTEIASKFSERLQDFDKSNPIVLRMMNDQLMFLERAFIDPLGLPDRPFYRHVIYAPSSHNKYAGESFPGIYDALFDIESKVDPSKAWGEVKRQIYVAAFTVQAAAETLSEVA
The experiment in a line: flow cytometry.
With B1, the binding result is “binds”.

Turning to B2, the binding result is reported as “binds”.

Take B3: the binding result is listed as “binds”.

Another assay addresses T1, human prostate specific membrane …. The experiment in a line: flow cytometry on hPSMA/PC3 cells against PC3 cells (no data disclosed).
As for B4, the binding result is listed as “binds”. Same read-out and setting: the value for B5 was “binds”; that for B6 was “binds”. Same read-out and setting: in the case of B7 it was “binds”. As for B8, the binding result is “binds”. On to B9, for which the binding result is recorded as “binds”. Turning to B10, the binding result is recorded as “binds”.

The target in a further assay is T2, FLAG-hPSMA, extracellular domain protein of hPSMA with a FLAG-tag at the N-terminus (human, UniProt Q04609 44-750).
T2 construct: also called FLAG-PSMA; soluble hPSMA antigen
T2 sequence (Q04609 other isoform, or with tags, fused parts or gaps): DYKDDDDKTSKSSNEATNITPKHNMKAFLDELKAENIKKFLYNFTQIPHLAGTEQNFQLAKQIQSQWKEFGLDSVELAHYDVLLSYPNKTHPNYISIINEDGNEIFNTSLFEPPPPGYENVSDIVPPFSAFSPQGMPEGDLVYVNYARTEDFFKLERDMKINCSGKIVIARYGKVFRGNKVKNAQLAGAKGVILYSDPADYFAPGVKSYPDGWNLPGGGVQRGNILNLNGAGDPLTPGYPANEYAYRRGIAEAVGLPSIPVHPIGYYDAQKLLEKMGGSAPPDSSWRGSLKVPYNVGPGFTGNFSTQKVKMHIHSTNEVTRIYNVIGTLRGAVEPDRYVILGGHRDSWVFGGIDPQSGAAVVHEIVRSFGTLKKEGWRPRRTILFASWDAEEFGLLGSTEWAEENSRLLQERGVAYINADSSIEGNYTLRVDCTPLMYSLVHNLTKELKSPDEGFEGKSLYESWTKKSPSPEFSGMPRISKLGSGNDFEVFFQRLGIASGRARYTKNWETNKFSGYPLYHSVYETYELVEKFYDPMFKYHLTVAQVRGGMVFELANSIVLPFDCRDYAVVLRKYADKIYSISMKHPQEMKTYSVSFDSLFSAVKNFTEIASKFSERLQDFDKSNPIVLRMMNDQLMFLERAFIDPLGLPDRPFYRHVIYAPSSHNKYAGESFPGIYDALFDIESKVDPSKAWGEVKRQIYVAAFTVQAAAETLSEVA
The experiment in a line: phage ELISA, scFv phage clone on immobilized FLAG-PSMA. On the procedure: The concentrated phage was monocloned and clones having the affinity to FLAG-PSMA were selected by ELISA. In ELISA, MAXISORP STARTUBE (manufactured by NUNC) in which the FLAG-PSMA of Example 5 described below was immobilized thereon, and a site not bound by FLAG-PSMA was blocked by using SuperBlock Blockig Buffer (manufactured by Thermo Fisher Scientific Inc.) was used.
Each phage clone was added to each well and allowed to react at room temperature for 30 minutes, and then each well was washed three times with PBS containing 0.1% Tween 20 (hereinafter referred to as PBS-T). Subsequently, a solution in which horseradish peroxidase-labeled anti-M13 antibody (manufactured by GE Healthcare) was diluted 5000 times with PBS-T containing 10% Block Ace (manufactured by Dainippon Pharma Co., Ltd.) was added to each well by 50 μL and incubated at room temperature for 30 minutes.
As to B11, the binding result is on record as “binds”. In the case of B12, the binding result is “binds”. As for B13, the binding result is listed as “binds”. B14: the binding result is listed as “binds”. Take B15: the binding result is “binds”.

On to B16, for which the binding result is reported as “binds”. On the same count and under the same terms, the value for B17 was “binds”. The same measure, in the same setting: in the case of B18 it was “binds”; in that of B19, “binds”.

For B20, the binding result is on record as “binds”. The same measure, in the same setting: in the case of B21 it was “binds”.

The next assay has as its target T1, human prostate specific membrane …. The experiment in a line: flow cytometry on hPSMA/L929 cells (FIG. 2). On the procedure: The cells were suspended in a staining buffer [PBS containing 0.1% NaN₃ and 1% FBS] at a concentration of 1×10⁶ cells/mL, and dispensed in a round-bottom 96-well plate (manufactured by Becton Dickinson) by 100 μL/well. After the centrifugation (2000 rpm, 4° C., 2 minutes), each antibody obtained in Example 7 was added to the pellet obtained by removing the supernatant, and suspended, and then left stand at ice temperature for 30 minutes.
After the further centrifugation (2000 rpm, 4° C., 2 minutes), the pellet obtained by removing the supernatant was washed twice with 200 μL/well of the staining buffer. Thereafter, 1 μg/mL of RPE fluorescently labeled mouse anti-human antibody (hinge region) clone 4E3 antibody (manufactured by Southern Bioblot) was added thereto by 50 μL/well and incubated at ice temperature for 30 minutes. After washing twice with the staining buffer, the cells were suspended in 200 μL/well of the staining buffer, and the fluorescence intensity of each cell was measured with the flow cytometer FACSCANTO II (manufactured by Becton Dickinson). The obtained results are illustrated in FIG. 2 and FIG. 3.
hPSMA/L929 cells were stained with anti-TRAILR2 monoclonal antibody E11 antibody, anti-hPSMA monoclonal antibody PI134 antibody, or hTRAILR2-hPSMA bispecific antibody E11-CH1-PI101VH antibody, E11-CH1-PN7VH antibody or E11-CH1-PN170VH antibody. The obtained results are illustrated in FIG. 2.
In general terms: In flow cytometry, cells or beads pass a laser one at a time.
As for B22, the binding result is “binds”.

Regarding B23, the binding result is given as “binds”. On the same count and under the same terms, in the case of B24 it was “binds”; in that of B25, “binds”; in that of B26, “binds”.

Source of the values: US20180016346A1 (Kyowa Kirin, published 2018).
